Values quoted from earlier work as cited in article PMC5487772.
Read-outs that look alike come from different tables or passages of the source.

Experiments:
phosphacan [1] = target: phosphacan (UniProt Q62656)
phosphacan [2] = target: phosphacan (UniProt Q62656); remark: listed apart in the source

Chain of UniProt Q62656 (Q62656 25-1637): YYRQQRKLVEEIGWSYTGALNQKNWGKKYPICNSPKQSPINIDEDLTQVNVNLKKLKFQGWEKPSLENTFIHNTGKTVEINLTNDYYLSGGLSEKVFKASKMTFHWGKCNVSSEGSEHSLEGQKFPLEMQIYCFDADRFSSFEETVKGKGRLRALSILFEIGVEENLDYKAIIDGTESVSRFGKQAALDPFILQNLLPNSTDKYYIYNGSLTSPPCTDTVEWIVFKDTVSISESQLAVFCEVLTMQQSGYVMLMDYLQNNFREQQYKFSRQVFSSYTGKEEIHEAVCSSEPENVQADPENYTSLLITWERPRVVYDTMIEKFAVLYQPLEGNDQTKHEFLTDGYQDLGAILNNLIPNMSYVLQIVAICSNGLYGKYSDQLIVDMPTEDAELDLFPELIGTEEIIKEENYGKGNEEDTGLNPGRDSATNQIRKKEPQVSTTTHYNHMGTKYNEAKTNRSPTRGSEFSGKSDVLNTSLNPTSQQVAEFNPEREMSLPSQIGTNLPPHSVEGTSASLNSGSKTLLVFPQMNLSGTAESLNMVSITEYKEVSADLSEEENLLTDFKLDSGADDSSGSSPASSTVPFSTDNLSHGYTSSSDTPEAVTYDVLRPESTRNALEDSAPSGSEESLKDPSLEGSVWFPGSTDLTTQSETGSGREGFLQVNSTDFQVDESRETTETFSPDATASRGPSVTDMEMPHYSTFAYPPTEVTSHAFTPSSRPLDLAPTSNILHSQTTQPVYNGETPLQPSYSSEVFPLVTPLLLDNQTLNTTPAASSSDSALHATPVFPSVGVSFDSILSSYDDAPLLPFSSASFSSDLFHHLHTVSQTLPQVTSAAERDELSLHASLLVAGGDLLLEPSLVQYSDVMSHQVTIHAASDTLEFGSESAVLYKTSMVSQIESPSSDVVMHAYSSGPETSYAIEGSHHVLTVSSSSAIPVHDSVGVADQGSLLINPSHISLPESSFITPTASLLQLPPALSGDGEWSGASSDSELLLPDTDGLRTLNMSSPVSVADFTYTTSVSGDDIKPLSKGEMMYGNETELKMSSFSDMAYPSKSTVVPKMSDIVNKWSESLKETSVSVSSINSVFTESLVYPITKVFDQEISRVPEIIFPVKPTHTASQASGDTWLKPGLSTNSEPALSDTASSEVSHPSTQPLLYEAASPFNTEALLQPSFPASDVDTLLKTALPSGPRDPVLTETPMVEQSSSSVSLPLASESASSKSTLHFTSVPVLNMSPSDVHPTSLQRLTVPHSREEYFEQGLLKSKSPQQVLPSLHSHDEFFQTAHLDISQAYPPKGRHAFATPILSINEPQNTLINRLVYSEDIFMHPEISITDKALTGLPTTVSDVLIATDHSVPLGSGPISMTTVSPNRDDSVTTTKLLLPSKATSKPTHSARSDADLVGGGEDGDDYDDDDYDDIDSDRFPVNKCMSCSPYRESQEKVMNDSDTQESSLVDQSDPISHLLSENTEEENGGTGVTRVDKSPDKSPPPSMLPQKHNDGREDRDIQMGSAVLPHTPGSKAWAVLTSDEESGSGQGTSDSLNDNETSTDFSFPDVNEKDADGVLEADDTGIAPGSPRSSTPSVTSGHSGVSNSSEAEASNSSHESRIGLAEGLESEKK

| Substance | Kd (phosphacan [1]) | Kd (phosphacan [2]) |
| --- | --- | --- |
| N-CAM (from UniProt P13591) | 500 pM | – |
| Ng-CAM (from UniProt Q03696) | – | 500 pM |
